Laboratory results published in patent publication US20260242735A1 (UNIVERSIT T BASEL, published 2026).

B1: Refmab #6 (antibody, V domains shown)
VH: QVQLQQPGAEVVKPGASVKMSCKASGYTFTSYYIHWIKQTPGQGLEWVGVIYPGNDDISYNQKFQGKATLTADKSSTTAYMQLSSLTSEDSAVYYCAREVRLRYFDVWGQGTTVTVSS
VL: EIVLTQSPGSLAVSPGERVTMSCKSSQSVFFSSSQKNYLAWYQQIPGQSPRLLIYWASTRESGVPDRFTGSGSGTDFTLTISSVQPEDLAIYYCHQYLSSRTFGQGTKLEIK
notes: The alanine scan used IgG or Fab
B2: Refmab #5 (antibody, V domains shown)
VH: QVQLVQSGAEVKKPGASVKVSCKASGYTFTNYDINWVRQAPGQGLEWIGWIYPGDGSTKYNEKFKAKATLTADTSTSTAYMELRSLRSDDTAVYYCASGYEDAMDYWGQGTTVTVSS
VL: DIQMTQSPSSLSASVGDRVTINCKASQDINSYLSWFQQKPGKAPKTLIYRANRLVDGVPSRFSGSGSGQDYTLTISSLQPEDFATYYCLQYDEFPLTFGGGTKVEIK
notes: as for B1

Assays:
Assay in all cases: alanine scan, flow cytometry, HEK293-T;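 note: antibody binding to each alanine-substituted CD33 mutant expressed transiently in HEK293-T, read as fluorescence minus background, mean of duplicates, relative to wild-type CD33 set as 100%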
human CD33 G188A = target: T1, human CD33 G188A (human, UniProt P20138 18-364)
T1 construct: alanine scan clone, transfected HEK293-T
T1 sequence (P20138 18-364 G188A limits assumed): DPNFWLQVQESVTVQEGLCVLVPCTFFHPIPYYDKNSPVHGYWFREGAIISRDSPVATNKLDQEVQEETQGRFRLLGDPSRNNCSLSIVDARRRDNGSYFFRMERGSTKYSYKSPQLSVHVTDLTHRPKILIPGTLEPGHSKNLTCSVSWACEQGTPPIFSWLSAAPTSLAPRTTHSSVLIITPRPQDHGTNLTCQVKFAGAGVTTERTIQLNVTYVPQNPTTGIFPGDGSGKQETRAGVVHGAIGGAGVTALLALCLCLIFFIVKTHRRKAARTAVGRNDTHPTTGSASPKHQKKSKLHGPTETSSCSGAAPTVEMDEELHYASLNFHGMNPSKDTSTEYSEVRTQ

human CD33 T192A = target: T2, human CD33 T192A (human, UniProt P20138 18-364)
T2 construct: alanine scan clone, transfected HEK293-T
T2 sequence (P20138 18-364 T192A limits assumed): as the sequence (P20138 18-364 G188A limits assumed) above, with A171G, T175A counted along it

human CD33 A168S = target: T3, human CD33 A168S (human, UniProt P20138 18-364)
T3 construct: alanine scan clone, transfected HEK293-T
T3 sequence (P20138 18-364 A168S limits assumed): as the sequence (P20138 18-364 G188A limits assumed) above, with A151S, A171G counted along it

human CD33 W179A = target: T4, human CD33 W179A (human, UniProt P20138 18-364)
T4 construct: alanine scan clone, transfected HEK293-T
T4 sequence (P20138 18-364 W179A limits assumed): as the sequence (P20138 18-364 G188A limits assumed) above, with W162A, A171G counted along it

human CD33 S158A = target: T5, human CD33 S158A (human, UniProt P20138 18-364)
T5 construct: alanine scan clone, transfected HEK293-T
T5 sequence (P20138 18-364 S158A limits assumed): as the sequence (P20138 18-364 G188A limits assumed) above, with S141A, A171G counted along it

human CD33 K126A = target: T6, human CD33 K126A (human, UniProt P20138 18-364)
T6 construct: alanine scan clone, transfected HEK293-T
T6 sequence (P20138 18-364 K126A limits assumed): as the sequence (P20138 18-364 G188A limits assumed) above, with K109A, A171G counted along it

human CD33 L141A = target: T7, human CD33 L141A (human, UniProt P20138 18-364)
T7 construct: alanine scan clone, transfected HEK293-T
T7 sequence (P20138 18-364 L141A limits assumed): as the sequence (P20138 18-364 G188A limits assumed) above, with L124A, A171G counted along it

human CD33 Q171A = target: T8, human CD33 Q171A (human, UniProt P20138 18-364)
T8 construct: alanine scan clone, transfected HEK293-T
T8 sequence (P20138 18-364 Q171A limits assumed): as the sequence (P20138 18-364 G188A limits assumed) above, with Q154A, A171G counted along it

human CD33 H143A = target: T9, human CD33 H143A (human, UniProt P20138 18-364)
T9 construct: alanine scan clone, transfected HEK293-T
T9 sequence (P20138 18-364 H143A limits assumed): as the sequence (P20138 18-364 G188A limits assumed) above, with H126A, A171G counted along it

Binder | Mean % WT Binding (human CD33 G188A) [% WT binding] | Mean % WT Binding (human CD33 T192A) [% WT binding] | Mean % WT Binding (human CD33 A168S) [% WT binding] | Mean % WT Binding (human CD33 W179A) [% WT binding] | Mean % WT Binding (human CD33 S158A) [% WT binding] | Mean % WT Binding (human CD33 K126A) [% WT binding] | Mean % WT Binding (human CD33 L141A) [% WT binding] | Mean % WT Binding (human CD33 Q171A) [% WT binding] | Mean % WT Binding (human CD33 H143A) [% WT binding]
B1 | 100 | 99 | 100 | 96.7 | 95.2 | 134 | 97.5 | 99.6 | 97.5
B2 | 114 | 109 | 103 | 133 | 99.2 | 134 | 94.5 | 105 | 128
